From patent US20150266963A1
Each block holds one binder with its values, some of them ahead of it.

Columns and labels:
[1] = target: T1, human CD70 expressed on the surface of cells (human) (UniProt P32970); assay: cell-based or functional assay
T1 sequence (looked up): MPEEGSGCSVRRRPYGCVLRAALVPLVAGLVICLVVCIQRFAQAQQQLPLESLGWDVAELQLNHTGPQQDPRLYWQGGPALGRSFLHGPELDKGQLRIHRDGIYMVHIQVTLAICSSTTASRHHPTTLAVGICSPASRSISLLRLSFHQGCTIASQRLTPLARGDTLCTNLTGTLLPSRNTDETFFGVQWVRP

[2] = target: T2, recombinant human CD70 (Flag-TNC-CD70) (human) (UniProt P32970); assay: blocking ELISA; human Flag-TNC-CD70; competitor CD27-Fc
T2 sequence (looked up): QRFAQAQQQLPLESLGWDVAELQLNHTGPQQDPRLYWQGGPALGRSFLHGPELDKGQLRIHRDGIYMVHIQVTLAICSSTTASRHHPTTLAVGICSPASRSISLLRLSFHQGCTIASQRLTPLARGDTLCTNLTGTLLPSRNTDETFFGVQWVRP

[3] = target: rhesus recombinant CD70 (FLAG-TNC-rhesus CD70) (rhesus); assay: blocking ELISA; rhesus Flag-TNC-CD70; competitor CD27-Fc
[4] = target: cynomolgus monkey Flag-TNC-CD70 (cynomolgus monkey); assay: blocking ELISA; cynomolgus Flag-TNC-CD70; competitor CD27-Fc
[5] = target: T2, recombinant human CD70 (Flag-TNC-CD70) (human); assay: inhibition ELISA; Flag-TNC-CD70 captured by anti-Flag mAb; competitor CD27-Fc
[6] = target: T1, human CD70 expressed on the surface of cells (human); assay: flow cytometry on U266 cells, goat anti human IgG1 FITC [panel U266]
[7] = target: T2, recombinant human CD70 (Flag-TNC-CD70) (human); assay: blocking ELISA; Flag-TNC-CD70 captured by anti-FLAG M2; competitor CD27-Fc 6.5 nM
[8] = target: T3, rhesus CD70 on LCL8664 cells (rhesus) (UniProt F7GPA5); assay: flow cytometry on rhesus LCL8664 cells, goat anti human IgG1 FITC [panel Rhesus monkey]
T3 sequence: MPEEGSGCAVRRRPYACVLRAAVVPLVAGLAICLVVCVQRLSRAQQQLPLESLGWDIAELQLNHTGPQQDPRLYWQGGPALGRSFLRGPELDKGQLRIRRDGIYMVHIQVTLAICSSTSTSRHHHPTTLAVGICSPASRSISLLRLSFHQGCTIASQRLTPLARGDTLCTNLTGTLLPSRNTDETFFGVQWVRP

[9] = target: T1, human CD70 expressed on the surface of cells (human); assay: flow cytometry on U266 cells, 1 h at 4 °C, anti-hIgG1-Fc-FITC or anti-hIgG-Fc-PE [panel U266]
[10] = target: T2, recombinant human CD70 (Flag-TNC-CD70) (human); assay: Biacore; recombinant human CD70 on CM5 chip; Fab injected
[11] = target: T2, recombinant human CD70 (Flag-TNC-CD70) (human); assay: Biacore; recombinant human CD70 on CM5 chip; Fab from papain digestion

IC50 (ng/ml), IL-8 secretion in Raji / HT1080-CD27 co-culture assay [1]: 55 ng/mL
IC50 [2]: 0.054 mg/L
IC50 [3]: 0.178 mg/L
IC50 [4]: 0.112 mg/L
IC50 [5]: 0.33 mg/L
EC50 (read off the curve) [6]: 0.08 mg/L
IC50 [7]: 4.97 mg/L
EC50 (read off the curve) [8]: 0.1 mg/L
EC50 (read off the curve) [9]: 0.08 mg/L
B1: SGN70 (antibody, INN chains, looked up, V domains shown)
VH: QVQLVQSGAEVKKPGASVKVSCKASGYTFTNYGMNWVRQAPGQGLKWMGWINTYTGEPTYADAFKGRVTMTRDTSISTAYMELSRLRSDDTAVYYCARDYGDYGMDYWGQGTTVTVSS
VL: DIVMTQSPDSLAVSLGERATINCRASKSVSTSGYSFMHWYQQKPGQPPKLLIYLASNLESGVPDRFSGSGSGTDFTLTISSLQAEDVAVYYCQHSREVPWTFGQGTKVEIK

koff [10]: 0.0007 s⁻¹
koff [11]: 0.0007 s⁻¹
B2: SGN70-Fab (Fab, INN chains, looked up, V domains shown)
VH: B1 VH
VL: B1 VL
modifications: Fab
